Values quoted from earlier work as cited in patent US7266483B2, “System and methods for optimized drug delivery and progression of diseased and normal cells” (Optimata Ltd., priority 2000, dated 2007).

B1: G-CSF: Granulocyte-Colony Stimulating Factor; generates an increase in blood Neutrophil levels (protein, UniProt P09919 31-207, looked up)
Granulocyte …: TPLGPASSLPQSFLLKCLEQVRKIQGDGAALQEKLVSECATYKLCHPEELVLLGHSLGIPWAPLSSCPSQALQLAGCLSQLHSGLFLYQGLLQALEGISPELGPTLDTLQLDVADFATTIWQQMEELGMAPALQPTQGAMPAFASAFQRRAGGVLVASHLQSFLEVSYRVLRHLAQP

Columns and labels:
[1] = modeled as exponential distribution, held constant
post mitotic compartment = details: counts made on day 5 after G-CSF administration; noted by Price
[2] = average model parameter calculated from published data

Molecule | a, TPO-clearing ability of the receptors [2] | f, coefficient of non-specific TPO clearance [2] | relation coefficient of initial maximum TPO blood concentration (xi) to administered intravenous (IV) dose (s) (linear relation, xi=0.0167·si) | half-life of G-CSF in the blood [1] | number of cells in the post mitotic compartment following administration of G-CSF (post mitotic compartment)
TPO: Thrombopoiesis-controlling cytokine, glycoprotein of about 350 amino acids; term covers its recombinant forms and analogs | 38 pg/ml/hr/receptor molecule | 0.1 h⁻¹ | 0.0167 |  | 
B1 |  |  |  | 3.5 h | not significantly changed
